What is called EC50 is the midpoint of the concentration-response curve. A higher EC50 goes with a need for much substance. One may read the Kd as a measure of binding affinity in units of concentration. High values mean weaker binding, low ones tighter binding.

What all share (conditions): both partners purified
In experiment [1] the target is T1, HER2-ECD biotinylated at single site (Homo sapiens, UniProt P04626, biotinylated at single site).
T1 construct: human HER2 extracellular domain; also called ECD of HER2; source: bought: Sino Biological
Briefly: SPR; Biacore 8K; biotinylated HER2-ECD on a streptavidin chip; sdAbs injected in multi-cycle kinetics, 2-fold dilution series from 5 nM; 100 μL/min, 25°C, HBS-EP+ pH 7.4; 1:1 model. (In general: Surface plasmon resonance follows binding to a sensor surface in real time, without labels.)

The target in experiment [2] is T2, human HER2-ECD-Fc (Homo sapiens, UniProt P04626).
T2 construct: human epidermal growth factor receptor-2 (HER2), extracellular domain; The supplier is named only for the cross-reactivity ELISA; also called recombinant human HER2-Fc; recombinant human HER2-ECD; source: bought: R&D systems
Briefly: ELISA; microplates coated with human or mouse HER2-ECD-Fc, blocked with 1% BSA at room temperature; NM-02 serially diluted from 160 nM; detected with mouse anti-HA and anti-mouse IgG-alkaline phosphatase. (An ELISA detects its analyte on a solid surface through an enzyme-linked reagent.)

In a further experiment the target is T3, mouse HER2-ECD-Fc (Mus musculus, UniProt P70424).
T3 construct: mouse HER2 (ErbB2), extracellular domain; also called murine HER2-ECD; recombinant murine HER2-ECD; source: bought: R&D systems
T3 sequence (P70424 23-653): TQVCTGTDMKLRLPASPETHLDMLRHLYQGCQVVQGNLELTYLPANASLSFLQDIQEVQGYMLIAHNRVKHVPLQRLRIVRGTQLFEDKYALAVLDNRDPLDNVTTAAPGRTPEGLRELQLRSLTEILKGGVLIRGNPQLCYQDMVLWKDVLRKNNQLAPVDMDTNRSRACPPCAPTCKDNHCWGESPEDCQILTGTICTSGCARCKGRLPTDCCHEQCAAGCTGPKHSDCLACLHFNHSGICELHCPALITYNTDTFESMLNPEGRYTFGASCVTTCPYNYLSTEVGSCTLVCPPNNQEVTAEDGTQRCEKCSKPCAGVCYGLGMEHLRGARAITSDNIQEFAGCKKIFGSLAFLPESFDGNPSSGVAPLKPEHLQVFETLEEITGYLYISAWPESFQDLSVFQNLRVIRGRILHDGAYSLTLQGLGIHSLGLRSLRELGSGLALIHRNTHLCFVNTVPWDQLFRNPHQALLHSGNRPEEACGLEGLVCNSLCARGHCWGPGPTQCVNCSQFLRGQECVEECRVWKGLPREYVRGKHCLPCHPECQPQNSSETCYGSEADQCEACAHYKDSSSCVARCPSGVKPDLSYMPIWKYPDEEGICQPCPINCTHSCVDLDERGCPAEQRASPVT
The experiment is described as above.

Experiment [3] addresses T2, human HER2-ECD-Fc. In words: ELISA; recombinant human HER2-Fc (1 μg/mL) coated on a MaxiSorp plate; His-tagged sdAb pre-incubated 7 days at 37°C in human, mouse or cynomolgus serum or PBS, then serially diluted; detected with anti-HIS-HRP.

Numbering of substitutions follows the chain as printed.

B1: humanised NM-02 variant F (VHH)
VHH: QVQLQESGGGLVQPGGSLRLSCSASGFTFDDSDMGWYRQAPGNECELVSSISSDGSTYYADSVKGRFTISQDNSKNTLYLQMNSLRAEDTAVYYCAAEGHRYELGTCAALDYWGRGTLVTVSS
notes: humanised variant F of NM-02; source: ExpiCHO-S, transiently transfected, purified (HisTrap Excel, SEC)
Regarding B1, the binding result in experiment [1] is “binds”.

B2: NanoMab-02 (NM-02), HA- and His-tagged (VHH)
VHH: QVQLQESGGGSVQAGETLRLSCTASGFTFDDSDMGWYRQAPGNECELVSSISSDGSTYYADSVKGRFTISQDNAKNTVYLQMNSLKPEDTGVYYCAAEGHRYELGTCAALDYWGRGTQVTVSS
notes: camel (Camelus bactrianus) anti-HER2 single-domain antibody from a phage display library; In the ELISA and flow cytometry it was detected through the HA tag only; The microarray used the dual His6 + HA version (methods: 'either HA- and/or His-tagged'); also called dual tagged version of NM-02; duel-tagged NM-02
Regarding B2, the EC50 with human HER2-ECD-Fc [2] is 1.2 nM. Moreover, in the experiment with mouse HER2-ECD-Fc, the binding result is “no binding (tested: 160 nM)”.

B3: humanised NM-02 variant B (VHH)
VHH: B1 VHH with G16E, S17T, S23A, A91G
notes: humanised variant B of NM-02; source: ExpiCHO-S, transiently transfected, purified (HisTrap Excel, SEC)
Take B3: the binding result in experiment [1] is given as “binds”.

B4: humanised NM-02 variant J (VHH)
VHH: B1 VHH with L11S, A91G, L118Q
notes: humanised variant J of NM-02, with parental back mutations; source: ExpiCHO-S, transiently transfected, purified (HisTrap Excel, SEC)
For B4, the binding result in experiment [1] is “binds”.

B5: NanoMab-02 (NM-02) (VHH)
VHH: B2 VHH
notes: camel (Camelus bactrianus) anti-HER2 single-domain antibody; residues Gln3 to Ser123 modelled in the structure; The humanised variants were made in ExpiCHO-S with a C-terminal GSG-His tag, and the parent run beside them may have the same format; also called parent; wild type NM-02
Molecule B5 displayed a dissociation constant (Kd) in experiment [1] of around 0.2 nM.

B6: humanised NM-02 variant H (VHH)
VHH: B1 VHH with L11S
notes: humanised variant H of NM-02, with parental back mutations; source: ExpiCHO-S, transiently transfected, purified (HisTrap Excel, SEC)
Consider B6, for which the binding result in experiment [1] is given as “binds”.

B7: humanised NM-02 variant I (VHH)
VHH: B1 VHH with A91G, L118Q
notes: humanised variant I of NM-02, with parental back mutations; source: ExpiCHO-S, transiently transfected, purified (HisTrap Excel, SEC)
As to B7, the binding result in experiment [1] is “binds”.

B8: humanised NM-02 variant M (VHH)
VHH: B1 VHH with L78V, A91G
notes: humanised variant M of NM-02, with parental back mutations; source: ExpiCHO-S, transiently transfected, purified (HisTrap Excel, SEC)
Regarding B8, the binding result in experiment [1] is “binds”.

B9: humanised NM-02 variant N (VHH)
VHH: B1 VHH with A87P, A91G
notes: humanised variant N of NM-02, with parental back mutations; source: ExpiCHO-S, transiently transfected, purified (HisTrap Excel, SEC)
Take B9: in experiment [1], the binding result is “binds”.

B10: lead humanised NM-02 candidate (variant K) (VHH)
VHH: B1 VHH with S23T, A91G
notes: humanised variant K of NM-02, 82.5% human identity; also called humanised variant K; humanised lead; source: ExpiCHO-S, transiently transfected, purified (HisTrap Excel, SEC); not shown: His-tag (with short GSG linker), C-terminal, kept
Turning to B10, the “fold drop-off of activity after 7 days at 37°C in human serum versus PBS” value with human HER2-ECD-Fc [3] came to 1.5 fold. Besides, in experiment [1], the Kd came out at 0.212 nM and the “fold more potent than variant E” value is at least 2 fold.

B11: humanised NM-02 variant E (VHH)
VHH: B1 VHH with A91G
notes: humanised variant E of NM-02, 83.5% human identity; also called mid-humanised candidate; source: ExpiCHO-S, transiently transfected, purified (HisTrap Excel, SEC)
Consider B11, for which the binding result in experiment [1] is recorded as “binds”.

B12: humanised NM-02 variant L (VHH)
VHH: B1 VHH with S74A, A91G
notes: humanised variant L of NM-02, with parental back mutations; source: ExpiCHO-S, transiently transfected, purified (HisTrap Excel, SEC)
For the molecule B12, the binding result in experiment [1] is reported as “binds”.

B13: humanised NM-02 variant D (VHH)
VHH: B1 VHH with S23A, A91G
notes: humanised variant D of NM-02; source: ExpiCHO-S, transiently transfected, purified (HisTrap Excel, SEC)
Take B13: the binding result in experiment [1] is listed as “binds”.

B14: humanised NM-02 variant G (VHH)
VHH: B1 VHH with L118Q
notes: humanised variant G of NM-02, with parental back mutations; source: ExpiCHO-S, transiently transfected, purified (HisTrap Excel, SEC)
Regarding B14, the binding result in experiment [1] is reported as “binds”.

These data come from PMC10351726 (PLOS ONE, 2023).
